Patent publication US20240026407A1, “MODIFICATION OF SAPONINS” (GLAXOSMITHKLINE BIOLOGICALS SA, priority 2020, published 2024)

Tests used:
Assay type in all cases: biochemical, Quillaja saponaria
[1] = Experiment 6-2: screening of rhamnosidases for derhamnosylation of saponins in treated bark extract (25%), relative % of Left, Middle and Right Peak by UV HPLC; conditions: TBE 25%, pH 7.4, 19.5 h; for Left Peak: mainly QS-17 family, negative control 24%; for Middle Peak: mainly QS-18 and desglucosyl-QS-17 family, negative control 50%; for Right Peak: mainly QS-21 family, negative control 26%
[2] = Experiment 6-1: screening of rhamnosidases for derhamnosylation of saponins in treated bark extract (2%), QS-17 2296 to QS-18 2150 (PAR %); conditions: TBE 2%, pH 7.5, 30 degC, 18 h; TIC peak area ratio percent of rhamnosylated starting saponin to derhamnosylated product, LCMS/MS; negative controls 4.876, 5.225
[3] = Experiment 6-1: specificity of rhamnosidases towards other rhamnose residues (C3 saccharide rhamnose, C28 saccharide rhamnose); conditions: TBE 2%, pH 7.5, 30 degC, 18 h; LCMS/MS; negative controls 0.18, 0.17
[4] = Experiment 6-1: screening of rhamnosidases for derhamnosylation of saponins in treated bark extract (2%), QS-17 2310 to QS-18 2164 (PAR %); conditions: TBE 2%, pH 7.5, 30 degC, 18 h; TIC peak area ratio percent, LCMS/MS; negative controls 3.061, 2.429
[5] = Experiment 6-3: screening of rhamnosidases for derhamnosylation of saponins in crude bark extract (80%), relative % of Left, Middle and Right Peak by UV HPLC; conditions: CBE 80%, pH 7.4, 30 degC, 19.5 h; for Left Peak: mainly QS-17 family, negative control 27%; for Middle Peak: mainly QS-18 and desglucosyl-QS-17 family, negative control 48%; for Right Peak: mainly QS-21 family, negative control 26%
Procedure, shortened: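 Clarified lysates of expressed rhamnosidase variants were incubated with crude bark extract (pH 7.4, final 80%) at 30 degC with shaking for 19.5 h, then quenched with MeCN+2% AcOH. UV HPLC gave relative % of Left (QS-17), Middle (QS-18/desglucosyl-QS-17) and Right (QS-21) peaks.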

[6] = Experiment 6-1: screening of rhamnosidases for derhamnosylation of saponins in treated bark extract (2%), desglucosyl-QS-17 2134 to QS-21 1988 (PAR %); conditions: TBE 2%, pH 7.5, 30 degC, 18 h; TIC peak area ratio percent, LCMS/MS; negative controls 2.719, 2.158

Molecule | Left Peak [1] [%] | Middle Peak [1] [%] | Right Peak [1] [%] | QS-17 (PAR %) [2] [%] | ratio PP/QS-21 [3] | Peak57 (PAR %) [4] [%] | Left Peak [5] [%] | Middle Peak [5] [%] | Right Peak [5] [%] | Peak75 (PAR %) [6] [%]
1053 (protein, listed as Solibacter usitatus) MKRAALLILLAGTLFGAASVRPQQLRCEYRVNPQGIDVKDPRLSWILAPVNPKGRGLTQSAYRILVSSSEAALRGNSGDLWDSGKIVSAESTQVAYQGKPLNSGTAAFWKVQVWDQDGQPSDWSAPAQWSMGLLRAEDWKGRWIGRDEAGVYKDSASDYQLLERARWIWDAGNAQAGAPVGNRFFRAAFTVPAGRKVTRALSVIGADNTADVYLNGEPIAVESKLPLPHAVDITHLVRPGENVIAVRATHSRADRPAGLIGGVRVEFASGDPVLLQTSNQWRTVAKPDPGWENPGFLDAAWQASKDLGAFGMAPWEGVGFLAQHRLPGRLLRKEFALEKKLRRATVYYSGLGLSELYLNGAKVGDHVLSPGLTDYDKHVLYVTFDVTRQLVQGKNAIGLMLGNGRYYAPRNDVPIKTRDFGYPKALVQLDLEFEDGSRANVVSDETWKYSADGPIRANNEYDGEEYDARREIAGWNKAGFDDAGWEAAKIVGASSGAVVAQMAEPLRVTETVKPLGVKKLRPGVFVFDMGQNLVGWCRLRVTGPKGTQVKLRHSETLKDDGSLYVDNLRSAKAEDIYTLKGVGAEVYEPRFTYHGFRYVEVTGFPGEPSASALDARVVHDDMERAGEFTSSSGLLNKIHHNMFWGIRGNYRSIPTDCPQRDERQGWLGDRGQVSRSESYMFDVAGFYSKWMTDLEDSQRPSGSIPDVSPNYWPLYNDDLTWPGTIIFIHGMLYDQYGDKRVLARGYPAMKKWMDYEKTFVKDGLISKDQYADWCVPPEDPKLIHSQDPRRVTDKTLIATSYYYQFLRTMSRYARILDRPTDAADFDKQADQVQDTFQRRFFKLESGMYDNGTQTSSILPLYFGMIPADFRPAVVQTLVRNIELQSNGHVGTGLVGAQWLMRTLSDAGYADLAYKIATQKTYPGWGYMVEQGATTIWELWNGNTADPAMNSGNHVMQIGDLAVWMYEYLAGIRTDPEKPGFRHAVIRPYPAGDLSFVKATHKTMYGPLASSWKREKGEFMLDVTVPANTTATVWVPAKDAASVTESGKKATDVKGVKFVRSENGSAIFEVSSGAYSFKSGI | 20 | 54 | 26 | 1.127 | 0.18 | 0.550 | 26 | 48 | 26 | 0.944
1082 (protein, listed as Streptomyces avermitilis) MSALRVTSPSVEYVQRPLGLDAAHPRLSWPMASAAPGRRQSAYQVRVASSAAGLSHPDVWDSGKVVSDDSVLVPYAGPPLKPRTRYFWSVRVWDADGGASEWSAPSWWETGLMGASQWSAKWISAPAPLTEAPSLEGSSWIWFPEGEPANSAPAATRWFRRTVDLPDDITGATLAISADNVYAVSVDGAEVARTDLEADNEGWRRPAVIDVLDHVHSGNNTLAVSASNASVGPAGWICVLVLTTASGEKKIFSDASWKSTDHEPADGWREPDFDDSGWPAAKVAAAWGAGPWGRVAPVASAANQLRHEFRLPHKKVSRARLYATALGLYEAHLNGRRVGRDQLAPGWTDYRKRVQYQTYDVTSSVRPGANALAAYVAPGWYAGNVGMFGPHQYGERPALLAQLEVEYADGTSERITSGPDWRAASGPIVSADLLSGETYDARKETAGWTSPGFDDRAWLAVRGADNDVPEQIVAQVDGPVRIAKELPARKVTEPKPGVFVLDLGQNMVGSVRLRVSGDAGTTVRLRHAEVLNPDGTIYTANLRSAAATDTYTLKGQGEETYEPRFTFHGFRYVEVTGFPGKPSTTSVTGRVMHTSAPFTFEFETNVPMLNKLHSNITWGQRGNFLSVPTDTPARDERLGWTGDINVFAPTAAYTMESARFLTKWLVDLRDAQTSDGAFTDVAPAVGNLGNGVAGWGDAGVTVPWALYQAYGDRQVLADALPSVHAWLRYLEKHSDGLLRPADGYGDWLNVSDETPKDVIATAYFAHSADLAARMATELGKDAAPYTDLFTRIRKAFQTAYVASDGKVKGDTQSAYVLTLSMNLVPDALRKAAADRLVALIEAKDWHLSTGFLGTPRLLPVLTDTGHTDVAYRLLHQRTFPSWGYPIDKGSTTMWERWDSIQPDGGFQTPEMNSFNHYAYGSVGEWMYANIAGIAPGRAGYRQVVIRPRPGGEVTSARATFASLHGPVSTRWQQRSGGFVLTCSVPPNTTAEVWIPADHPDRVQHTHGTFVRAEDGCAVFEVGSGSHRFTV | 19 | 55 | 26 | 3.122 | 0.21 | 0.000 | 26 | 47 | 27 | 1.614
1018 (protein, Caulobacter vibrioides) MFELDRRALLLGLPVTSGALADGASQTSRWRAVGLRTAMRRQPLGIDDPQPMLSWRLEGPAGAVQSAYQIMVASTAEKLHAGVADLWDSGRVKSSESVGVRYGGAPLKPRQRCVWRVRAWDAAGRASDWSPPATWEMGLIDQSEWIGDWLAVEAADERDDRVAGVRWVETQTPKPHETCRFRLSFRSGGGEGRLAIMAEGKLSKLVLDGRSIELPWRDPNGYGDPPALGLPLQLEAGAHELIAEVTSTGPGEGPGRAALGAQVRVLAADGAARRIVDGWETEAAGAWTPAVVRTAQPHFPWPPTPARLLRRTFTLSKPPTQARLYVSALGGYRIWLNGRRVGDDELQTEPAAYRRHVPYRAYDVTDLLRDGENVVGLIVGDGTFASYQAPDGRYAYGPGPRRVRLFLESRDSGDRVERVATDGEWRHALSPVLMSEIYAGEDHDLRLWPRGWAEPGFDDSGWSRVWTAPPPEGAPCALLSEPIRETRVLKAASIRAVGPGRHIVDFGQNFAGRVRLRVKGAKGAPVIVRHAEILDGQGALDRRNLRVARAEDRYILNGDDAPETLQPSFTYQGFRYAEIEGVAGLDRDMIDGVVLSSDLPEIGVFRTAEPLVQNLWLNSLWSQRSNFMGIPTDCPQRDERLGWTGDAQVFWETAAFNMDVGGFTRGFARTLRDDQAPNGAYPMWSPSPRGLGWGTTTPTPGWADGGVMLPYVAYLHSGDRSIVDENWTAMSAYVSGVLAENPDGLWRRGRGADFGDWLALDGKWPGDETTPKDLIATAMLARSVDQLAQMAAWTGRSAEAKTWRGQADRIKAAFASAFVRADGTVGNGSHTGYILALRLGLAPQPLRKAAGEHLAADIRRRGTLLSTGFLGTPLALDALADHGHAGLAFDLLLRTEYPSWGYMVRRGATTTWERWNGDTGDVSMNSFNHYALGAICGFLYRRVAGVEPITPGFGAFRVAPLIDPRLRSAGATVDSVRGRIETDWRVTGDKAVLKVRVPANSRAEVVLPTLTRSLGAGDHTLSVPLAK | 22 | 52 | 26 | 1.512 | 0.17 | 0.547 | 26 | 48 | 26 | 2.651
1066 (protein, listed as Caulobacter segnis) MQIDRRRVMLLGGAGSLVVAQGEAAPLGAAAISDCRVCGLETPLALGAATPRFSWRLSGPRPQAAYRITVARSAADLSAPRDLVWDSGKVASGQSFDIAFGGPAAAPRQVFWWRVEAWDDKGARAVGRPARWETGLLSASDWNAAWLAAEDATAKADRLAGVHWISGPESITDKTSKRCYRTSFEVPAQSDGTLFLAASGLAGVFLNGQELAAGEEEPTRFTTMSPYPLALRQGRNVIAIAQTPSRDLGGPQPMLCALIRLGGSERRLSTAEGWKTTVNAPEGWTLPDFDDGAWPAATTARNRPRGQPLPPGAATHLRRAFRLDKPVAQARLYATALGAYEAWINGAPADERKMAPEPTNLLERVLYQAYDVTAALRAGDNVLGLWVGDGWYASEFSANARFCFGPAPCRAMAQLEILFIDGSRQVIATDDQWRIAPSAILTSEIYDGEVYDARQEIKDWALPGTPQGGWRPAETVEAPNLPIDPQVSPPIRVTQRLKPKAVTSPKPGVHVFDFGQNFAGWAELAISGKAGTRIELLFGEYLKPDGQVDQANLRTAFARDTYVLKGQGREVWSPRFTYHGFRYVEVRGLANAPAADLLTGLVGHNDIRVSGVLRVGAPVVEQFWRNSVWSQRSNFFGLPTDCPQRDERLGWLGDAAVFWPAAAYNMDVEAFTRRFMGDVRRAQRPDGQFPDCIPPFMVPSSRSAPGWSDAGVILPYTAWRQYGDTGVIAENWEAMERYLAFILAKNPDYLWKSSKGNDYGDWLAVDAKYLGEATTPKDLIGTAFWAADAAMMRDMAKAIGKAEAAERYRALFEAIRAAFAGAYVQADGKIGNGSQTSYILAIRFGLLSPEQASEAGRRLAADIAARGGKLSTGFLGTPHILDALADTGHEATAVGLLLQRDYPSWGYMVTKGATTMWERWNSDTGDLSMNSYNHYAFGAIGDFLFRRIAGLAAVEPGFAKVVIAPIFDRRLGSAGADYDSVSGRLSSNWRYEGDTVRLDLSIPPGVQAEVVIPTAARAVRVDGRPVPSARFRVERGQHRVVFTA | 20 | 53 | 27 | 2.194 | 0.18 | 0.896 | 26 | 48 | 27 | 1.220
